From the supplement of paper PMC6379048
pKd: −log10 of the molar value.

Tests used:
Test in all cases: Kd (EC50 corrected by depletion factor)
MRPS28 = MRPS28 (UniProt Q9Y2Q9)
Procedure, shortened: (§1)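 HEK293-FT lysate (2.5 mg protein/well) was pre-incubated 1 h at 4°C with free RNA oligos (0 nM to 30 μM), then 30 min at 4°C with the same 5′-amino-C6 oligos coupled to NHS-Sepharose beads. Bound proteins were quantified by label-free LC-MS/MS in three biological replicates and two independent experiments, and normalised to the water control. EC50 came from a four-parameter log-logistic fit; Kd is EC50 times a protein-dependent depletion factor.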

HNRNPR = biological target: T1, HNRNPR (UniProt O43390)
T1 sequence: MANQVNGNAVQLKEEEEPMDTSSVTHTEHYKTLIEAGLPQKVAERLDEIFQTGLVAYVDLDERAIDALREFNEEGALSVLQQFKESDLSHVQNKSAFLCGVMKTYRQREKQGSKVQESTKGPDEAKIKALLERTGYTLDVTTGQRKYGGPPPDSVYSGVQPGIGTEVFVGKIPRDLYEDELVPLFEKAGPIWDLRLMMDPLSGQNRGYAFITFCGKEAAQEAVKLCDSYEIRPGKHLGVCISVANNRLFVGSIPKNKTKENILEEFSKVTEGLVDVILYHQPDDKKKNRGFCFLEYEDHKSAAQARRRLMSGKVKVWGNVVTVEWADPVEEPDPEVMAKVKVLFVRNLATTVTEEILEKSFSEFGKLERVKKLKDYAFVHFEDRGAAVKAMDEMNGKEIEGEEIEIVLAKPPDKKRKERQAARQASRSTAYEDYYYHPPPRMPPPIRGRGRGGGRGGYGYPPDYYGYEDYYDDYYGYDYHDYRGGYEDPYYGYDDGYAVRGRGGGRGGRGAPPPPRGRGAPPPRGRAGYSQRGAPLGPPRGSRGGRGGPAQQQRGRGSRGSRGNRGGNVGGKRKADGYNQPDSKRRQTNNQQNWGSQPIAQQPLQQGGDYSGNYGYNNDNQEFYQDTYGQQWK
Procedure, shortened: as §1

TUBB4B = TUBB4B (UniProt P68371)
Procedure, shortened: as §1

PABPN1 = biological target: T2, PABPN1 (UniProt Q86U42)
T2 sequence: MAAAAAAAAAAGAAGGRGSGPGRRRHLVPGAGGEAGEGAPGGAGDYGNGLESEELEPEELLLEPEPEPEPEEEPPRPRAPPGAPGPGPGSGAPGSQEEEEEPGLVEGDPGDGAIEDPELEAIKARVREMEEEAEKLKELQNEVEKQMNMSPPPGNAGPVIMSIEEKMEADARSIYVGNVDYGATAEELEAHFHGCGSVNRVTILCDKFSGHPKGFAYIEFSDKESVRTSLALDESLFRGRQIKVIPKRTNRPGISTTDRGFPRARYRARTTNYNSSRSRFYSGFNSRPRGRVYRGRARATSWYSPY
Procedure, shortened: as §1

SRRM2 = SRRM2 (UniProt Q9UQ35)
Procedure, shortened: as §1

TIAL1 = biological target: T3, TIAL1 (UniProt Q01085)
T3 sequence: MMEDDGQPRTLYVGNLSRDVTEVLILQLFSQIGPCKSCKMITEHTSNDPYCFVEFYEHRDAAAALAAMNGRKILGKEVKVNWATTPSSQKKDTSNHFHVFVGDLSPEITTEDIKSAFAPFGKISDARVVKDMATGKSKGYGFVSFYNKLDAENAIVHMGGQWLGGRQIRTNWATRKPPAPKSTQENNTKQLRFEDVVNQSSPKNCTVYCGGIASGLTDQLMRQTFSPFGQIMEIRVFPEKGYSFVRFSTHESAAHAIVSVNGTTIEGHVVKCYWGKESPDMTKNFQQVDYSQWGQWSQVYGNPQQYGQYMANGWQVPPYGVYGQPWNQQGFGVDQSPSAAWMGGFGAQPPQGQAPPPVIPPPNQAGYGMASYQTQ
Procedure, shortened: as §1

Sequence of SRRM2 (Q9UQ35 whole entry): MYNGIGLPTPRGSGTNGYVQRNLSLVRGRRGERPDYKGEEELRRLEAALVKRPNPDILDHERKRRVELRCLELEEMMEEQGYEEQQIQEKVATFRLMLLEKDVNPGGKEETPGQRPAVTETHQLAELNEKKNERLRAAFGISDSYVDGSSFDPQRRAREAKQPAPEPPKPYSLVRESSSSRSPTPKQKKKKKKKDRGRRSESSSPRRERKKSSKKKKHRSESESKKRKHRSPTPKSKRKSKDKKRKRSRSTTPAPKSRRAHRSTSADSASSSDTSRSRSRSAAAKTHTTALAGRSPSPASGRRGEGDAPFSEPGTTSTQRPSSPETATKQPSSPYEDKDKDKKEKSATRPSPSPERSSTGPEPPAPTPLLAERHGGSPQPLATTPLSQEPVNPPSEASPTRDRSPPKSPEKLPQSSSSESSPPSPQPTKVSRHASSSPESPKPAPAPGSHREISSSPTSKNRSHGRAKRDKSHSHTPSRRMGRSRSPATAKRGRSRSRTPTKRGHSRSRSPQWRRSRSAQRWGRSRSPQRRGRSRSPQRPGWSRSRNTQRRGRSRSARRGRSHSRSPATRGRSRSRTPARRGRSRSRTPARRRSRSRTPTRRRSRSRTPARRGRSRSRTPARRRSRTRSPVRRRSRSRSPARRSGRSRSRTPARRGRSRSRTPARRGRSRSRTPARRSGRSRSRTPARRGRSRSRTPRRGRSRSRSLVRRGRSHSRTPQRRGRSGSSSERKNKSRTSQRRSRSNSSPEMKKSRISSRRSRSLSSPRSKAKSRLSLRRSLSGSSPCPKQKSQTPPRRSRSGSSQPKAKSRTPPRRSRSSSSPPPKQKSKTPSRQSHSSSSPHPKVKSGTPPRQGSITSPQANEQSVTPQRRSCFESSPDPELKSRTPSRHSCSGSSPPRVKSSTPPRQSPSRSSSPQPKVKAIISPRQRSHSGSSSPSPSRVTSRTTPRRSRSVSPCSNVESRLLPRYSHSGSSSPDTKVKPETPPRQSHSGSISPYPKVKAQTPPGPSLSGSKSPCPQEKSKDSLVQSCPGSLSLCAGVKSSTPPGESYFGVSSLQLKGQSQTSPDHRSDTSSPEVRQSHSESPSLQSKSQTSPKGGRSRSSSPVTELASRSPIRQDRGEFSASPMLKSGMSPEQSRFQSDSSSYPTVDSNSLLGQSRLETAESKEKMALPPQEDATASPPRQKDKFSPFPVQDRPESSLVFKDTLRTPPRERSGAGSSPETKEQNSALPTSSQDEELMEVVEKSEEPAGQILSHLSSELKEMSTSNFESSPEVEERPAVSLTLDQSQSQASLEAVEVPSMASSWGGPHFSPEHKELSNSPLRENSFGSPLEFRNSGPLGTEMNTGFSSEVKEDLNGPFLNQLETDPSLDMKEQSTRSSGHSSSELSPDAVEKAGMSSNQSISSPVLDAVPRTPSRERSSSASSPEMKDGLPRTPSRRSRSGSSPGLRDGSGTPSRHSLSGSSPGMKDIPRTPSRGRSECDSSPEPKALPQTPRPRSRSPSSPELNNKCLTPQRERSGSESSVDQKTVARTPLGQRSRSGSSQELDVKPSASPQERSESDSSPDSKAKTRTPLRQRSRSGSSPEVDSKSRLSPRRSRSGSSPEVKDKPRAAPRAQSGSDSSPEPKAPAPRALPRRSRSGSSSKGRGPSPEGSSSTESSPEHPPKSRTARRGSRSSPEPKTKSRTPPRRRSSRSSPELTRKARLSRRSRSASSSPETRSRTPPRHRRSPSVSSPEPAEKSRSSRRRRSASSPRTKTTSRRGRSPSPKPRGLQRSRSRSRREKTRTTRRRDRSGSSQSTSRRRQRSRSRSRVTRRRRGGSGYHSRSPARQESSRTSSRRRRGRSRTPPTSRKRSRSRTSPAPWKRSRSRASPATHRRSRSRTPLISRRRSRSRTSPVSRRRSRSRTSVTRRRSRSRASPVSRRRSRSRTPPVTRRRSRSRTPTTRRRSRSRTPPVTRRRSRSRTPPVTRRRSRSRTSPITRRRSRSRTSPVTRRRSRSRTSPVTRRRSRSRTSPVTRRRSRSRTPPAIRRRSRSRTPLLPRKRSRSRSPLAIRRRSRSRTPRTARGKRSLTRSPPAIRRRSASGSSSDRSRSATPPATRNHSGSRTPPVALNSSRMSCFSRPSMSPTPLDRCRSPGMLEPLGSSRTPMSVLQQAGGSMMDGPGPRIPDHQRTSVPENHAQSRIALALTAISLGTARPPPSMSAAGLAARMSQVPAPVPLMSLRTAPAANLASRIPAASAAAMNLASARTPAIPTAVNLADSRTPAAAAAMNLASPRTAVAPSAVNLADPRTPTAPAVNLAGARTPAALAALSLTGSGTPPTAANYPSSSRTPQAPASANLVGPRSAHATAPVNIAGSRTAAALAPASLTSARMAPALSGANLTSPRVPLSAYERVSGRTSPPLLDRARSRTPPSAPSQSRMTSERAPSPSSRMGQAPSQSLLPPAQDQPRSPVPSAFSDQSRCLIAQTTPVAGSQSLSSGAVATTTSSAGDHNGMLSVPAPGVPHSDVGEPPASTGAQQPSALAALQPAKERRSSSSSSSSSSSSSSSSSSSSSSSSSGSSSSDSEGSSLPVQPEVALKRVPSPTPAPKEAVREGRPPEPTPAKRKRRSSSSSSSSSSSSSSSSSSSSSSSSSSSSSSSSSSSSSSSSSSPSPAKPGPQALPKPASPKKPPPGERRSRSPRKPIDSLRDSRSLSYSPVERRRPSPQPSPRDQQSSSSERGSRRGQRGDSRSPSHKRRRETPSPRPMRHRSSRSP
Sequence of TUBB4B (P68371 whole entry): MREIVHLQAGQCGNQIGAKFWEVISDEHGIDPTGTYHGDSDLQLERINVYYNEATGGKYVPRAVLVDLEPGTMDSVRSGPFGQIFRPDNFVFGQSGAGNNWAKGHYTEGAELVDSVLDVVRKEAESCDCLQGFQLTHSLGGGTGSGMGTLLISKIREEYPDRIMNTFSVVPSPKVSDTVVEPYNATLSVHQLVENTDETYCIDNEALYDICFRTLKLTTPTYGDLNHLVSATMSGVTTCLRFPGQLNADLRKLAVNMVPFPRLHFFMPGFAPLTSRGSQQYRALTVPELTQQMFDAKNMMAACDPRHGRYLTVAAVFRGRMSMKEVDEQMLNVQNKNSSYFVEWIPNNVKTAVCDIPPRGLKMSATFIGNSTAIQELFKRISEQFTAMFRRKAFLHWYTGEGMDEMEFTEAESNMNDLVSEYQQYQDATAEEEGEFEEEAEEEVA

| Sequence | pKd (MRPS28) | pKd (HNRNPR) | pKd (TUBB4B) | pKd (PABPN1) | pKd (SRRM2) | pKd (TIAL1) |
| --- | --- | --- | --- | --- | --- | --- |
| UAUUUAU | 7.80 |  |  |  |  |  |
| AAUAAA |  | 6.17 | 5.61 | 6.43 | 6.44 | 7.95 |
